From patent publication US20220112292A1

B1: VHH clone 1G6 (VHH)
VHH: QVQLQQSGGGLVQAGGSLRLSCAASGSIFAINEINLMGWYRQAPGKQRELVAACASDGNTYYADSVKGRFTISRDNAEKTVYLQMNNLKPDDTAVYYCDANSRGNYYSGQGTQVTVSS
B2: VHH clone 2F5 (VHH)
VHH: QVQLQQSGGGLAQTGGSLILSCAASGSIFAINEINLMGWYRQAPGKQRELVAACASDGNTYYADSVKGRFTISRDNAEKTVYLQMNNLKPDDTAVYYCDANSRGNYYSGQGTQVTVSS
B3: VHH clone 1H1 (VHH)
VHH: QVQLQESGGGLVQPGGSLRLSCAASGFTFNSYAMTWVRQAPGKGLEWVSDINSGGGSTNYADSVKGRFTISRDNAKNTLYLQMNSLKPEDTAVYYCATELRGSDYYRGPIREYAYWGQGTLVTVSS
B4: VHH clone 2F3 (VHH)
VHH: QVQLQAFGGGLVQPGGSLRLSCVVSGTMFSGKDVNWLRQAPGKHVEVVATVSSDGGTDYADFVKGRFTISRDDAKNTVNLQMNSLEPEDTANYMCHFLWGRHYWGQGTQVTVSS
B5: VHH clone 1B5 (VHH)
VHH: QVQLQESGGGLVQAGGSLRLSCVVSGATSNVNAMGWYRQAPGKERELVAAISSGGSTSYRDSVKGRFTISRDNAKNTLYLQMNSLKPEDTAMYYCAAQDWATEGYEYDYWGQGTLVTVSS
B6: VHH clone 2H3 (VHH)
VHH: QVQLQESGGGLVQAGGSLRLSCVASGSIRSINVMGWYRQAPGKQRELVAACASDGNTYYADSVKGRFTISRDNAEKTVYLQMNNLKPDDTAVYYCDANSRGNYYSGQGTQVTVSS

Molecular target: CLEC12A/CLL1 (Homo sapiens) (UniProt Q5QGZ9)
Assay: ELISA on plate coated with 1 ug/mL human CLEC12A; sdAb detected with mouse anti-myc mAb and goat anti-mouse IgG-HRP; Abs 450nm

| EC50 [nM] | Binder |
| --- | --- |
| 0.48 | B1 |
| 0.65 | B2 |
| 0.9 | B3 |
| 1.5 | B4 |
| 19.5 | B5 |
| 0.61 | B6 |
